# Laboratory results published in patent publication US20130102527A1 (TRUSTEES OF DARTMOUTH COLLEGE, published 2013).
# Read-outs that look alike come from different tables or passages of the source. Non-standard residues stand in square brackets, D forms with d. Primed or numbered codes have the meaning given here. No end group written: not given here. *: point of attachment. N3‑Phe = N-terminal azido-phenylalanine, [N-]=[N+]=N[C@@H](Cc1ccccc1)C(=O)*; HMB = 3-hydroxy-2-methylbenzoyl cap, Cc1c(O)cccc1C(=O)*; Phe(4-N3) = [N-]=[N+]=Nc1ccc(C[C@H](N)C(=O)O)cc1; Phe(4-CH2NH2) = NCc1ccc(C[C@H](N)C(=O)O)cc1; Phe(4-NH2) = Nc1ccc(C[C@H](N)C(=O)O)cc1; N3Phe = N-terminal azido-phenylalanine; 4Pal = N[C@@H](Cc1ccncc1)C(=O)O; VS″ = vinyl sulfone (warhead); VS = vinyl sulfone warhead; EK = epoxyketone warhead; ek = epoxyketone warhead
# T1: chymotrypsin-like site (β5 subunit) of 26S proteasomes purified from rabbit muscle (rabbit, UniProt G1T4Q9 60-263)
# T1 sequence: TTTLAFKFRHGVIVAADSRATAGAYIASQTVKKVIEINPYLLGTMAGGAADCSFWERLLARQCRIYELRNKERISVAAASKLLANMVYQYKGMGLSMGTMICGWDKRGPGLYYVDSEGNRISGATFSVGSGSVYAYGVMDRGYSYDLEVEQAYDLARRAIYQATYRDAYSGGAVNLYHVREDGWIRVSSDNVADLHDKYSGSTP
# T2: trypsin-like site (β2 subunit) of 26S proteasomes purified from rabbit muscle (rabbit, UniProt G1SWK8 44-271)
# T2 sequence: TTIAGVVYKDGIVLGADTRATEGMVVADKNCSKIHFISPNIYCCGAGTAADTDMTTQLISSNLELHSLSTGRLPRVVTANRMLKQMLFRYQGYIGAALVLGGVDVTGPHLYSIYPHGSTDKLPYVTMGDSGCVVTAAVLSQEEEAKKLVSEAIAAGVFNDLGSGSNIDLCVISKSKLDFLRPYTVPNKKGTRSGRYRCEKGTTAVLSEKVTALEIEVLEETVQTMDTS
# T3: trypsin-like site (β2 subunit) of yeast 20S proteasome (S. cerevisiae, UniProt P25043 30-261)
# T3 sequence (looked up): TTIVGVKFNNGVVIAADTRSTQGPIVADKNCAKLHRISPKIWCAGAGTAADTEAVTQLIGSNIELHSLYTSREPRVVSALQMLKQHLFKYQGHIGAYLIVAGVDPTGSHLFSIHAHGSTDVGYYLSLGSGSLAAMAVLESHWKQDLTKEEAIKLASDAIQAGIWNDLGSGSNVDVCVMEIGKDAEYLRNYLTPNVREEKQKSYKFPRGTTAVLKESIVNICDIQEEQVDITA
# T4: chymotrypsin-like site (β5 subunit) of yeast 20S proteasome (S. cerevisiae, UniProt P30656 76-287)
# T4 sequence (looked up): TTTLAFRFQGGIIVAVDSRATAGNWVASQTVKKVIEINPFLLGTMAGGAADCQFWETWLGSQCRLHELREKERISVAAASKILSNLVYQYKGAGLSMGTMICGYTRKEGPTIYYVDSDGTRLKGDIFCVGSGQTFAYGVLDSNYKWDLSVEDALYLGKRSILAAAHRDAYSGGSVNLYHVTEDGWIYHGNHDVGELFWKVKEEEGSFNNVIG
# What was measured:
# [1] = target: T5, proteasome β1 subunit (caspase-like site) in human cells and cell extracts (human, UniProt P28072 35-239); assay: labelling and competition assay in HEK-293T lysate, fluorescence gel
# T5 construct: mature; also called Casp-L; caspase-like sites
# [2] = target: T1, chymotrypsin-like site (β5 subunit) of …; assay: cell-based or functional assay
# [3] = target: T6, caspase-like site (β1 subunit) of 26S proteasomes purified from rabbit muscle (rabbit); assay: cell-based or functional assay
# [4] = target: T2, trypsin-like site (β2 subunit) of 26S …; assay: cell-based or functional assay
# [5] = target: T2, trypsin-like site (β2 subunit) of 26S …; assay: cell-based or functional assay; remark: listed apart in the source
# [6] = target: T6, caspase-like site (β1 subunit) of 26S …; assay: cell-based or functional assay; remark: listed apart in the source
# [7] = target: T5, proteasome β1 subunit (caspase-like …); assay: cell-based or functional assay
# [8] = target: T3, trypsin-like site (β2 subunit) of yeast …; assay: cell-based or functional assay
# [9] = target: T3, trypsin-like site (β2 subunit) of yeast …; assay: cell-based or functional assay; remark: listed apart in the source
# [10] = target: T4, chymotrypsin-like site (β5 subunit) of …; assay: cell-based or functional assay
# [11] = target: T2, trypsin-like site (β2 subunit) of 26S …; assay: cell-based or functional assay; remark: listed apart in the source
# [12] = target: T1, chymotrypsin-like site (β5 subunit) of …; assay: cell-based or functional assay; remark: listed apart in the source
# [13] = target: T7, proteasome β5 subunit (chymotrypsin-like site) in human cells and cell extracts (human, UniProt P28074 60-263); assay: competition with activity-based probe in living HEK-293 cells, 4 h; Chym-L site
# T7 construct: mature; also called Chym-L; chymotrypsin-like sites
# [14] = target: T7, proteasome β5 subunit …; assay: cell-based or functional assay
# T5 sequence (P28072 35-239): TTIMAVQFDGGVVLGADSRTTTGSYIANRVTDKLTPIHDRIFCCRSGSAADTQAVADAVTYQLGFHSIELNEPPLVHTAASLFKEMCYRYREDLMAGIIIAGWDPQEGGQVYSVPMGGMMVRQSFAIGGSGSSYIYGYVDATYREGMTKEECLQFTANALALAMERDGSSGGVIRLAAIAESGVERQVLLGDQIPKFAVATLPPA
binder,measurement,setting,value
"{BODIPY‑triazole}-FLL[Phe(4-CH2NH2)]-{VS″} (also: TFA salt, Fluorescent probe made from compound 4a; also called compound 39) [BODIPY-triazole-Phe-Leu-Leu-Phe(4-CH2NH2)-VS TFA salt (39)]",binding result,[1],no binding
[N3Phe]LL[Phe(4-NH2)]-{VS} [N3-Phe-Leu-Leu-Phe(4-NH2)-VS (45a)],IC50 (µM) for sites in 26S proteasomes: Chym-L,[2],0.04 µM
same,IC50 (µM) for sites in 26S proteasomes: Casp-L,[3],23 µM
[Phe(4-N3)]LL[Phe(4-NH2)]-{EK} [N3-Phe-Leu-Leu-Phe(4-NH2)-EK (45b)],IC50 (µM) for sites in 26S proteasomes: Tr-L,[4],1.8 µM
same,IC50 (µM) for sites in 26S proteasomes: Chym-L,[2],0.01 µM
same,IC50 (µM) for sites in 26S proteasomes: Casp-L,[3],> 30 µM
Ac-Leu-Leu-Arg-ek [NC-002 (Ac-Leu-Leu-Arg-ek)],IC50 (µM) for sites in 26S proteasomes: Tr-L,[4],1 µM
same,IC50 (µM) for sites in 26S proteasomes: Chym-L,[2],> 30 µM
same,IC50 (µM) for sites in 26S proteasomes: Casp-L,[3],> 30 µM
{HMB}-Val-Ser-[Phe(4-CH2NH2)]-{VS} [HMB-Val-Ser-Phe(4-CH2NH2)-VS (48)],IC50 (µM) for sites in 26S proteasomes: Tr-L,[5],0.25 µM
same,IC50 (µM) for sites in 26S proteasomes: Casp-L,[6],11 µM
same,"IC50 (µM) for sites: Casp-L; NCI-H929 cells, 6 h, PROTEASOMEGLO",[7],> 30 µM
same,"IC50 (µM) for sites: Casp-L; RPMI-8226 cells, 6 h, PROTEASOMEGLO",[7],> 30 µM
[N3‑Phe][Phe(4-CH2NH2)]L[Phe(4-CH2NH2)]-{VS} [N3-Phe-Phe(4-CH2NH2)-Leu-Phe(4-CH2NH2)-VS (52)],fold potency against yeast trypsin-like sites relative to 4a,[8],> 4000 fold
same,IC50 (µM) for yeast 20S proteasome: Tr-L,[9],0.00055 µM
same,IC50 (µM) for yeast 20S proteasome: Chym-L,[10],6.1 µM
[N3Phe][4Pal]L[Phe(4-CH2NH2)]-{VS} (also: TFA salt) [N3-Phe-Ala(4-pyridine)-Leu-Phe(4-CH2NH2-TFA)-VS (50)],IC50 (µM) for sites: Tr-L,[11],0.012 µM
same,IC50 (µM) for sites: Chym-L,[12],1.05 µM
same,"IC50 (µM) for sites: Casp-L; NCI-H929 cells, 6 h, PROTEASOMEGLO",[7],> 30 µM
same,IC50,[13],> 50 µM
{HMB}-Val-Ser-Arg-ek [NC-022 (HMB-Val-Ser-Arg-ek)],IC50 (µM) for sites in 26S proteasomes: Tr-L,[5],0.0038 µM
same,IC50 (µM) for sites in 26S proteasomes: Casp-L,[6],16 µM
same,"IC50 (µM) for sites: Chym-L; NCI-H929 cells, 6 h, PROTEASOMEGLO",[14],> 30 µM
same,"IC50 (µM) for sites: Chym-L; RPMI-8226 cells, 6 h, PROTEASOMEGLO",[14],> 30 µM
same,"IC50 (µM) for sites: Casp-L; NCI-H929 cells, 6 h, PROTEASOMEGLO",[7],> 30 µM
same,"IC50 (µM) for sites: Casp-L; RPMI-8226 cells, 6 h, PROTEASOMEGLO",[7],> 30 µM
[Phe(4-N3)]LL[Phe(4-CH2NH2)]-{EK} (also: TFA salt) [N3Phe-Leu-Leu-Phe(4-CH2NH2)EK TFA salt (4b)],IC50 (µM) for sites in 26S proteasomes: Tr-L,[4],0.25 µM
same,IC50 (µM) for sites in 26S proteasomes: Casp-L,[3],11 µM
